From paper PMC12474247
“And” between values parts separate entries of the source, which are not always exact repeats. Equal entries are not always repeated.

Molecular target: small hepatitis delta antigen with C-terminal His6-tag (SHDAg-His6), native preparation (hepatitis D virus genotype 1)
Test: SEC

**Q.** For “small hepatitis delta antigen with C-terminal His6-tag (SHDAg-His6), native preparation (natural protein)”, which stoichiometry N is on record?
**A.** 4 and 8
